Article PMC9352680, “A comprehensive thermodynamic model for RNA binding by the Saccharomyces cerevisiae Pumilio protein PUF4”

T1: PUF4 RNA-binding domain (Saccharomyces cerevisiae, UniProt P25339 537-888)
T1 sequence: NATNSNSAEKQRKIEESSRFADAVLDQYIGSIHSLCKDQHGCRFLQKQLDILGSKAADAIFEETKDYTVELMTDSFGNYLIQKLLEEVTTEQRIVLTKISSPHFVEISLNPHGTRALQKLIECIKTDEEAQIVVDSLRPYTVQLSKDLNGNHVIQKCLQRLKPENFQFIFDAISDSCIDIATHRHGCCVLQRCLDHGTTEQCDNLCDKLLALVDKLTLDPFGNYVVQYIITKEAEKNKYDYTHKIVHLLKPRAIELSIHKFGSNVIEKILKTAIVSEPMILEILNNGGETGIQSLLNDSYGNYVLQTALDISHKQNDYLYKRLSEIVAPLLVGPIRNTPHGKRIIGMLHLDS

B1: Ic_S4_P5E.1_K5.1_C5.1_H5.1_A5.1_[T6C]_F5.1_[T8C]_[T9A]_[A10T]_T5.1 (ssRNA)
RNA: UUUGACAACUGAUCGUUCUUUCUUGUAUCACAUUUCUUUCUCGAUCAGUUGUCUUU
B2: Ic_S4_P5E.1_K5.1_C5.1_H5.1_A5.1_[T6C]_[A7G]_F5.1_[T8G]_T5.1 (ssRNA)
RNA: UUUGACAACUGAUCGUUCUUUCUUGUAUCGGUAUUCUUUCUCGAUCAGUUGUCUUU
B3: Ic_S4_P5E.1_K5.1_C5.1_H5.1_A5.1_[A7G]_F5.1_[T9C]_[A10T]_T5.1 (ssRNA)
RNA: UUUGACAACUGAUCGUUCUUUCUUGUAUUGUCUUUCUUUCUCGAUCAGUUGUCUUU
B4: Ic_S4_P5E.1_K5.1_C5.1_H5.1_A5.1_[T5A]_[T6A]_[A7T]_F5.1_[T8C]_[T9C]_[A10G]_T5.1 (ssRNA)
RNA: UUUGACAACUGAUCGUUCUUUCUUGUAAAUCCGUUCUUUCUCGAUCAGUUGUCUUU
B5: Ic_S4_P5E.1_K5.1_C5.1_H5.1_A5.1_[T5A]_[A7T]_F5.1_[T8A]_[T9G]_[A10C]_T5.1 (ssRNA)
RNA: UUUGACAACUGAUCGUUCUUUCUUGUAAUUAGCUUCUUUCUCGAUCAGUUGUCUUU
B6: Ic_S4_P5E.1_K5.1_C5.1_H5.1_A5.1_[T5G]_[T6C]_[A7C]_F5.1_[T8C]_T5.1 (ssRNA)
RNA: UUUGACAACUGAUCGUUCUUUCUUGUAGCCCUAUUCUUUCUCGAUCAGUUGUCUUU
B7: Ic_S4_P5E.1_K5.1_C5.1_H5.1_A5.1_[T6A]_[A7C]_F5.1_[T8C]_[T9A]_[A10T]_T5.1 (ssRNA)
RNA: UUUGACAACUGAUCGUUCUUUCUUGUAUACCAUUUCUUUCUCGAUCAGUUGUCUUU
B8: Ic_S4_P5E.1_K5.1_C5.1_H5.1_A5.1_[T6C]_[A7C]_F5.1_[T8C]_[T9C]_[A10G]_T5.1 (ssRNA)
RNA: UUUGACAACUGAUCGUUCUUUCUUGUAUCCCCGUUCUUUCUCGAUCAGUUGUCUUU
B9: Ic_S4_P5E.1_K5.1_C5.1_H5.1_A5.1_[T5C]_[T6A]_[A7C]_F5.1_[T9G]_[A10G]_T5.1 (ssRNA)
RNA: UUUGACAACUGAUCGUUCUUUCUUGUACACUGGUUCUUUCUCGAUCAGUUGUCUUU
B10: Ic_S4_P5E.1_K5.1_C5.1_H5.1_A5.1_[A7C]_F5.1_[T8G]_[A10G]_T5.1 (ssRNA)
RNA: UUUGACAACUGAUCGUUCUUUCUUGUAUUCGUGUUCUUUCUCGAUCAGUUGUCUUU
B11: Ic_S4_P5E.1_K5.1_C5.1_H5.1_A5.1_[T5A]_[T6C]_F5.1_[T9G]_[A10C]_T5.1 (ssRNA)
RNA: UUUGACAACUGAUCGUUCUUUCUUGUAACAUGCUUCUUUCUCGAUCAGUUGUCUUU
B12: Ic_S4_P5E.1_K5.1_C5.1_H5.1_A5.1_[T5C]_[T6C]_[A7T]_F5.1_[T8C]_[T9C]_T5.1 (ssRNA)
RNA: UUUGACAACUGAUCGUUCUUUCUUGUACCUCCAUUCUUUCUCGAUCAGUUGUCUUU
B13: Ic_S4_P5E.1_K5.1_C5.1_H5.1_A5.1_[T5C]_F5.1_[T8C]_[T9A]_[A10C]_T5.1 (ssRNA)
RNA: UUUGACAACUGAUCGUUCUUUCUUGUACUACACUUCUUUCUCGAUCAGUUGUCUUU
B14: Ic_S4_P5E.1_K5.1_C5.1_H5.1_A5.1_[T5C]_F5.1_[T9A]_[A10C]_T5.1 (ssRNA)
RNA: UUUGACAACUGAUCGUUCUUUCUUGUACUAUACUUCUUUCUCGAUCAGUUGUCUUU
B15: Ic_S4_P5E.1_K5.1_C5.1_H5.1_A5.1_[T5A]_F5.1_[T9C]_T5.1 (ssRNA)
RNA: UUUGACAACUGAUCGUUCUUUCUUGUAAUAUCAUUCUUUCUCGAUCAGUUGUCUUU
B16: Ic_S4_P5E.1_K5.1_C5.1_H5.1_A5.1_[T5C]_[T6A]_[A7T]_F5.1_[T8G]_[A10T]_T5.1 (ssRNA)
RNA: UUUGACAACUGAUCGUUCUUUCUUGUACAUGUUUUCUUUCUCGAUCAGUUGUCUUU
B17: Ic_S4_P5E.1_K5.1_C5.1_H5.1_A5.1_[T5C]_[A7C]_F5.1_[T8A]_[T9G]_[A10C]_T5.1 (ssRNA)
RNA: UUUGACAACUGAUCGUUCUUUCUUGUACUCAGCUUCUUUCUCGAUCAGUUGUCUUU
B18: Ic_S4_P5E.1_K5.1_C5.1_H5.1_A5.1_[T5C]_[T6C]_[A7T]_F5.1_[A10T]_T5.1 (ssRNA)
RNA: UUUGACAACUGAUCGUUCUUUCUUGUACCUUUUUUCUUUCUCGAUCAGUUGUCUUU
B19: Ic_S4_P5E.1_K5.1_C5.1_H5.1_A5.1_[T5A]_[T6C]_[A7C]_F5.1_[T9A]_[A10G]_T5.1 (ssRNA)
RNA: UUUGACAACUGAUCGUUCUUUCUUGUAACCUAGUUCUUUCUCGAUCAGUUGUCUUU

biological target: T1, PUF4 RNA-binding domain; assay: Mg; RNA-MaP; 20 mM Na-HEPES pH 7.4, 30 mM KOAc, 0.75 mM MgCl2, 0.1% Tween-20, 5% glycerol, 0.1 mg/mL BSA, 2 mM DTT; 25 C; 0.0125-409.6 nM protein; conditions: tags: N-His6-TEV cleaved; C-SNAP kept, Cy3B-labelled; label: tethered on chip by stalled RNA polymerase

UCUCUUUGUAAAUUCUCUCUU (ssRNA) [Ib_S1_P4E.1_K4.1_C4.1_H4.1_A4.1_[T5A]_F4.1_[A9C]_T4.1] was tested. Which Kd did it give?
Its Kd is 26.3 nM.

Which Kd does the source give for UCUCUUUGUACAUUCUCUCUU (ssRNA) [Ib_S1_P4E.1_K4.1_C4.1_H4.1_A4.1_[T5C]_F4.1_[A9C]_T4.1] here?
The Kd was 5.41 nM.

UCUCUUUGUACAUUUUCUCUU (ssRNA) [Ic_S1_P4E.1_K4.1_C4.1_H4.1_A4.1_[T5C]_F4.1_[A9T]_T4.1] was tested. Which Kd did it give?
The Kd was 5.25 nM.

Which Kd does the source give for UCUCUUUGUAAAUUUUCUCUU (ssRNA) [Ic_S1_P4E.1_K4.1_C4.1_H4.1_A4.1_[T5A]_F4.1_[A9T]_T4.1] here?
The Kd was 18.3 nM.

With UCUCUUUGUAUGUUGUCUCUU (ssRNA) [Ib_S1_P4E.1_K4.1_C4.1_H4.1_A4.1_[A6G]_F4.1_[A9G]_T4.1] as the binder, how does the Kd read?
The Kd was 218 nM.

B1 was tested. Which Kd did it give?
Its Kd is 183 nM.

For B2, which Kd is on record?
The Kd was 45.9 nM.

B3 was tested. Which Kd did it give?
Its Kd is 134 nM.

For B4, which Kd is on record?
The Kd was 254 nM.

For B5, which Kd is on record?
Its Kd is 338 nM.

For B6, which Kd is on record?
Its Kd is 19.6 nM.

How did the Kd turn out when B7 was run?
The Kd was 15.4 nM.

How did the Kd turn out when B8 was run?
Its Kd is 674 nM.

For B9, which Kd is on record?
The Kd was 14.9 nM.

With B10 as the binder, how does the Kd read?
Its Kd is 66.3 nM.

Which Kd does the source give for B11 here?
The Kd was 25.7 nM.

B12 was tested. Which Kd did it give?
Its Kd is 198 nM.

With B13 as the binder, how does the Kd read?
The Kd was 540 nM.

B14 was tested. Which Kd did it give?
Its Kd is 3.28 nM.

How did the Kd turn out when B15 was run?
The Kd was 113 nM.

How did the Kd turn out when B16 was run?
Its Kd is 6.77 nM.

For B17, which Kd is on record?
The Kd was 730 nM.

Which Kd does the source give for B18 here?
The Kd was 12.3 nM.

How did the Kd turn out when B19 was run?
The Kd was 48.7 nM.
